Experiments:
[1] = molecular target: mAb (sample of Example 11, 4.28 mg/ml); assay: load volume to 35% breakthrough, PCC columns, CIP with 2 M NaOH
[2] = molecular target: human polyclonal IgG (Gammanorm) (human); assay: pH gradient elution (citrate pH 6-3) from column
[3] = molecular target: Cy5-hIgG (Cy5-labelled human immunoglobulin G) (human); assay: confocal microscopy of beads with Cy5-hIgG, after 16 h in 1 M NaOH
[4] = molecular target: Cy5-hIgG (Cy5-labelled human immunoglobulin G) (human); assay: confocal microscopy of beads with Cy5-hIgG, after 8 h in 2 M NaOH

Substance | original capacity remaining [1] | Elution pH (peak 1) [2] | Elution pH (peak 2) [2] | binding capacity lost [3] | Ig-binding capacity lost [4]
MabSelect SuRe (ligand of the commercial reference matrix) | < 80% |  |  |  | 
MabSelect SuRe LX (ligand of the commercial reference matrix) |  | 4.01 pH | 3.7 pH | 50% | 50%
Zvar(Q9A, N11E, Q40V, A42K, N43A, L44I)6 (designed binder) |  | 4.24 pH | 3.81 pH |  | 
